Assay results as given in the nanobody polyreactivity screen of Harvey et al. (2022).

Assay: yeast display, Sf9 membrane polyspecificity reagent, FACS + sequencing; frameworks hold sequencing errors
How it was run: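 Polyreactivity labels are assigned by the sorting gate from which each nanobody was recovered. The gates were low and high (top ~1%), set on anti-HA fluorescence for expression and streptavidin fluorescence for reagent binding. Before sorting, galactose-induced (36–48 hours) yeast display cells were stained for 1 hour at 4 °C with 10% biotinylated, detergent-solubilized Sf9 membrane reagent.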

Row | Sequence | polyreactivity (PSR sort gate)
1 | QVQLVESAGGLVQAGGSLRLTCAASGRTFTFNTMGWYRQAPGKERELVAAIDGDGTTNYADSVKGRFTISRDNAKNTVYLQMNSLKPEDTAVYYCAADFLYSFWYEPTFDYWGQGTQVTVSS | low polyreactivity
2 | QVQLVESAGGLVQAGGSLRVSCAASGSTFSRYTMGWYRQAPGKERELVAAIRWSSGRTYYADSVKGRFTISRDNAKNTVYLQMNSLKPEDTAVYYCAALFPRGQADYAYWGQGTPVTVSS | high polyreactivity
3 | QVQLVESAGGLVQAGGSLSLSCAASGRTFGQYPMGWYRKAPGKERELVAAITRSAGSTYYADSVKGRFTISRDNAKNNVYLQMNSLKPEDTAVSYCAKRFYWSVDGYRTAKYYYWGQGTQVTVSS | high polyreactivity
4 | QVQLVESAGGLVQAGGSLSLSCAASGYTYWYAMGWYRQAPGKERELVAAIDSGVTRTYYADSVKGRFTISRDNAKNTVYLQMNSLKPEDTAVYYCAAGLSTDYGYWGQGTQVTVSS | low polyreactivity
5 | QVQLVESAGGLVQAGVILRLSCPASGSTIEYYAMGWYRQAPGKERELVATISIDGRTNYADSVKGRFTISRDNAKNTVYLQMNSLNPEDTAVYYCAARPYWRHRYDYCGQGTQVTVSS | low polyreactivity
6 | QVQLVESAGGLVQEGGSLRLICAASARTIVIYSMGWYRQAPGKEREFVAAISRSGGSTYYADSVKGRFTISRDNQKNTVYLQMNSLQPVDTAVYYCNTRTPYWFKSDYWGQGTQVTVSS | low polyreactivity
7 | QVQLVESAGGLVQEGGSLRLICAASGSIFGGYAMGWYRQAPGKERELVAAISWSSSTTYYADSVKGRFTISRDHAMNTVYLQLNSLKPEDTAVYDCATGIYPQTSDYDYWGQGTQVTVSS | low polyreactivity
8 | QVQLVESAGGLVQEGGSLRLSCAASGRIFGPYALGWYRQAPGKERELVAAISFSGSGTYYAASVKGRFTISRDNANNTVYLQIYSLKPEDNAVYYCAADGVYIDSNNRNTSDYWGQGTQVTVSS | low polyreactivity
9 | QVQLVESAVGLVQAGGSLPLSCDASSSTIYPYAMGWYRQAPGKERELVAAISSGGSTSYADSVKGRFTISRDNAKNTVYLQMNSLKPEDTAVYYCNADPLQCKLWTYFFGFPGYYWGQGTQVTVSS | low polyreactivity
10 | QVQLVESCGGKVQAGGSLRLSCAASGRIFWYYAMVWYRQAPGKERELVAAIDRTRVRTSYADSVKGRFTISRDNAKNTVYLQMNSLKPEDTAVYYCAADLVYGHYVTYWNSYVYWGQGTEVTVSS | low polyreactivity
11 | QVQLVESCGGLVQAGCSLRLSCAASGSIFDGNAMGWYRQAPGKERDLVAVISSRGTRTYYADSVKGRFTISRDNAKITVYLQMNSLKPEDTAVYYFNTRTSDLNGSGDYWGQGTQVTVSS | high polyreactivity
12 | QVQLVESCGGLVQAGGRLRLICAASGRTFTYNAMGWYIQAPGQERELVAAINFSGVSTYYADSVKGRFTISRDNAKYTVYLQMNSLKPEDTAVYSCNTVGYHYESDYWGQGTQVTVSS | high polyreactivity
13 | QVQLVESCGGLVQAGGRLRLSCAASGRIFYSYAMGWSRQAPGKERELVAAITVSGGSTFYADSVKGRFTISRDNAKNTVYLQMNSLKPEDTAVYYCNAPKRYSTIGYDYWGQGSQVTVSS | high polyreactivity
14 | QVQLVESCGGLVQAGGSHRLSCAASGRTFRYYAMGWYRQAPWKERELVAAIRRGGSTTYADSVKVRFTISRDNAKNTVYLQMNSLKPEDTAVYYCAARYPGTRGDGYWGQGTQVTVSS | high polyreactivity
15 | QVQLVESCGGLVQAGGSHRLSCAASGSTFKGYDMGWYRQAPGKERELVAAIDSGGSTYYADSVKGRFTISRDNAKNTVYLQMNSLKPEDTAVYYCAATGQDTYGLDVVDEYDYWGQGTQVTVSS | low polyreactivity
16 | QVQLVESCGGLVQAGGSLPLSCAASGFTFYYYTMGWYRQAPGKERELVAVITGGGGSTYYADSVKGRFTISRDNAKNTVYLQMNSLKPEDTAVYYCAAKFYGWYRERGYDYWGQGTQVTVSS | high polyreactivity
17 | QVQLVESCGGLVQAGGSLRLISAASGRTFGHNTMGWYRQAPGKEREYVAAIRWTAGSTYYADSVKGRFTISRDNAKNTVYLQMNSLKPEDTAVYYCAAYYVERRSYRVDRGTTLGYWGQGTQVTVSS | high polyreactivity
18 | QVQLVESCGGLVQAGGSLRLSCAASGFIFYDYDMGWYRQAPGKQRELVAAITYSGASTYYADSVKGRFTISRDNAKNTVYLQMNSLKPEDTAVFYCAAVKSRYADAVDYYYWGQGTQVTVSS | low polyreactivity
19 | QVQLVESCGGLVQAGGSLRLSCAASGGTFGFYAMGWYRQAPGKERELVAAISRRGGSTYYADSVKGRFTISRDNAKNTVYLQMNSLKPEDTAVYYCAARVYRYRHYDYWGQGTQVTVSS | high polyreactivity
20 | QVQLVESCGGLVQAGGSLRLSCAASGHIFFYYTMGWYRQAPGKQRELVAGITIGGSTNYADSVKGRFTISRDNAKNTVYLQMNSLKPEDTAVYYCNVVKYVYIYSYWEYYYWGQGTQVTVSS | low polyreactivity
21 | QVQLVESCGGLVQAGGSLRLSCAASGIIFSVNAMGWSRQAPGKERELVAAITIGGSTYYADSVKGRFTISRDNAKNTVYLQMNSLKPEDTAVYYCAADEYGPHTFSPESDSWGQGTQVTVSS | low polyreactivity
22 | QVQLVESCGGLVQAGGSLRLSCAASGLIFWKYAMGWYRQAPGKERELVAAITSGGSTNYADSVKGRFTISRDNAKNTVYLQMNSLKPEDTAVYYCNARSWFEYYWGQGTQVTVSS | high polyreactivity

Row | Sequence | polyreactivity (PSR sort gate)
23 | QVQLVESCGGLVQAGGSLRLSCAASGRIFGIYSMGWYRQAPGKEREVVARITKSGGSTYYADSVKGRFTISRDNAKNTVYLQMNSLKPEDTAVYYCAASYYGKRDRAGPYYSFDYWGQGTQVTVSS | high polyreactivity
24 | QVQLVESCGGLVQAGGSLRLSCAASGRTFGVYAMGWYRQAPGKERDLVAAINYSGGSTYYADSVKGRFTISRDNAKNTVYLQMNSLKPEDTAVYSCNKGPLISYAYRYYQPYDYWGQGTQVTVSS | low polyreactivity
25 | QVQLVESCGGLVQAGGSLRLSCAASGRTFVTYAMGWYRQAPGKERELVAAISKRGSRTYYAYSVKGRFTISRDNAKNTVYLQMNSLKPEDTAVYYCNADPYRTSYDYWGQGTQVTVSS | high polyreactivity
26 | QVQLVESCGGLVQAGGSLRLSCAASGRTFYGYAMGWYRQAPGKERELVAAITASGGSTNYADSVKGRFTISRDNAKNTVYLQMNSLKPEDTAVYYCAARVYYLGQFYWYGYWGQGTQVTVSS | high polyreactivity
27 | QVQLVESCGGLVQAGGSLRLSCAASGRTFYKAMGWYRQAPGKERELVAASTTGGGTKYADSVKGRFTISRDNAQNTVYLQMNSLKPEDTAVYYCNTDEWYHFYHGAHKYDYWGQGTQVTVSS | low polyreactivity
28 | QVQLVESCGGLVQAGGSLRLSCAASGSIFGTNAMGWYRQAPGKERELVASITRGGSTNYADSVKGRFTISRDNAKNTVYLQMNSLTPEDTAVYYCNAQGHWRWWGYDYWGQGTQVTVSS | low polyreactivity
29 | QVQLVESCGGLVQAGGSLRLSCAASGSTFGYYTMGWYRQAPGKEREFVAAITRSTGSTFYADSVKGRFTISRDNAKNTVYLQMNRLKPEDTAVYDCAATQPWYNTRTRYGSWGQGTQVTVSS | low polyreactivity
30 | QVQLVESCGGLVQAGGSLRLSCAASGSTFILYAMGWYRPAPGKERELVAAISWSTGITYYADSVKGRFTISRDNAKNTVYLPMNSLKPEDTAVYYCAADAWGYHDYDASYSTGYEYWGQGTQVTVSS | high polyreactivity
31 | QVQLVESCGGLVQAGGSLRLSCAASGSTIVSNAMGWNRQAPGKERDLVAAITSGGTTNYADSVKGRFTISRDNAKNTVYLQMISLKPEETAVYYCAKRETVYYVNHPFTYSHDYCGQGTQVTVSS | low polyreactivity
32 | QVQLVESCGGLVQAGGSLRLSCAASGYTFGYYAMGWYRQAPGKERELVAAISWRGARTNYADSVKGRFTISRDNAKNNVYLQMNSLKPEDTAVYYCNAPKHNTVYTDRYDYWGQGTQVTVSS | high polyreactivity
33 | QVQLVESCGGLVQAGGSLRLSCAASGYTFRYYAMGWYRQAPGKERELVARITGRAGSTYYADSVKGRFTISRDNAKNTVYLQMNSLKPEDTAVYYCAASIREGFYWGHGTQVTVSS | high polyreactivity
34 | QVQLVESCGGLVQAGGSLRLSCAASRLIFGYYAMGWYRQAPVKERELVASISSGGRTYYADSVKGRFTISRDNAKNTVNLQMNSLKPEDTAVYYCNAVKGWFVYEYDYWGQGTQVTVSS | low polyreactivity
35 | QVQLVESCGGLVQAGGSLRLSCAATGLIIRGNDMVWYRQAPWKERELVAGINSSGSTNYADSVKVRFTISRDNAKNTVYLQMNSLKPEDTAVYYCAARAIVSFDYWGQGTQVTVSS | low polyreactivity
36 | QVQLVESCGGLVQAGGSLRLSCAAYGSIFTFYAMGWYRQAPGKERELVAAISSGGDTYYADSVTGRFTISRDNAKNTVYLQMNSLKPEDTAVYYCAADWRGSYLYGYYYWGQGTQVTASS | low polyreactivity
37 | QVQLVESCGGLVQAGGSLRLSCADSGRTFYKYAMGWYRPAPVKERELVAAITSGGGRTYYADSVKGRFTISRDNAKNTVYLQMNSLKPEDTAVYYCNAVLPLAKYEYDSWGQGTQVTVSS | high polyreactivity
38 | QVQLVESCGGLVQAGGSLSLSCAASGSTFNHYAMGWYRQATGKEREFVAAISWSGGSTYYADYVQGRFTISRDNAKNTGYLQMNSLKPEDTAVYYCNAAVSQFSHRWRRRLTFDYWGQGTQVTVSS | high polyreactivity
39 | QVQLVESCGVLVQAGGSLRLSCAASGFILYGNAMGWYRQAHGKERELVAAISRRGGSTYYADSVKGRFTISRDNAKNTVYLQMNSLKPEDTAVYYCAKDGPGGGTRIYDYWGLGTQVTVSS | high polyreactivity
40 | QVQLVESDGGLVQAGGSLRLSCAASGYIFGGYAMRWYRHAPGKERELVAAISYGVGSTYYADSVKGRFTISRDNAKNTVYLQMNSLKPEDTAVYYCAADVFFYVYEAYLLYYWGQGTQVTVSS | low polyreactivity
41 | QVQLVESEGGLVQAGGSLRLSCAASGFIFKYNDMGWYRQAPGKERELVAAIDVRTGLTYYADSVKGRFTISRDNAKTTVYLQMNSLKPEDPAVYYCNADYIQYAYDYWGQGTQVTVSS | high polyreactivity
42 | QVQLVESGAGIVQAGGSLRLSCAASGNSYGYAMGWYRQAPGKERELVAAITSGASDTYYADSVKGRFTISRDNAKKTVYLQMNSLKPEDTAVYYCAAVDYTNRYDPYDYWGQGTQVTVSS | low polyreactivity
43 | QVQLVESGAGIVQAGGSLRLSCAASGSILWHNAMGWYRQAPGKEREYVDAISARGTRTYYADSVKGRFTISRDNAKNTVYLQLKSLNPEDTAVYYCAARYWDDRARAEDYWGQVTQVTVSS | high polyreactivity
